The target in the experiment is T1, Human survivin (1-142 aa, N-terminal calmodulin tag, recombinant, #SUR0801, ATGen Co., Ltd.) (human, UniProt O15392 1-142).
T1 construct: range 1-142; Bought recombinant protein, used in solution at 100, 10 and 1 ng/mL; also called antigen; not shown: N-terminal calmodulin tag of the bought product
The experiment in a line: sandwich ELISA; VHH-STM complex adsorbed to the plate as capture, survivin in solution, detection with rabbit anti-survivin polyclonal antibody. For orientation: In an ELISA, binding on a coated surface is turned into a signal by an enzyme label.

T1 sequence (O15392 whole entry, the tested form may be a part): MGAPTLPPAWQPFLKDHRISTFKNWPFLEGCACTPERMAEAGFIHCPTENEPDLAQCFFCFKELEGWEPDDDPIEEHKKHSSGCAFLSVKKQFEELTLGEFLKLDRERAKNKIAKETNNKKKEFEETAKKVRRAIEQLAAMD

B1: VHH-STM complex (antibody complex consisting of an anti-human survivin VHH antibody and a stefin A mutant) (VHH)
VHH: EVQLVESGGGSVQAGGSLRLSCAASGVSNTDMIMIWFRQAPGKEREGVLAAIYKNSTYYADSVKGRFTISQDNAKNTVYLQMNSLKPEDTAIYYCAAIRAVIGRHIRPHIYWGQGTQVTVSS
notes: Single-chain fusion: anti-human survivin VHH, linker, stefin A mutant (STM), His tag, C-terminal Cys; Secreted from Brevibacillus choshinensis and Ni-NTA purified; Adsorbed directly to the plate as capture reagent; also called VHH-STM conjugate; VHH antibody-STM conjugate
On to B1, for which the binding result is listed as “binds”.
